Test results reported in patent publication US20210363257A1 (Pieris, published 2021).

What was measured:
[1] = target: T1, huCD137-His (human CD137 with a C-terminal polyhistidine tag) (human, UniProt Q07011 24-186); assay: dual-binding ELISA, huCD137-His coated, binder titrated, detection with biotinylated huPD-L1-His
T1 construct: Bought; also called huCD137-His-Bio

[2] = target: T1, huCD137-His (human CD137 with a …); assay: SPR (Biacore), binder captured by anti-human IgG Fc, huCD137-His in solution, 25 C, 1:1 model
Description: (§1) The binding kinetics and affinity of exemplary fusion proteins to huPD-L1-His or huCD137-His (human PD-L1 or human CD137 with a C-terminal polyhistidine tag, R&D Systems) were determined by surface plasmon resonance (SPR) using a Biacore 8K or a Biacore T200 (GE Healthcare).
(§2) The anti-human IgG Fc antibody (GE Healthcare) was immobilized on a CM5 sensor chip using standard amine chemistry: the carboxyl groups on the chip were activated using 1-ethyl-3-(3-dimethylaminopropyl)-carbodiimide (EDC) and N-hydroxysuccinimide (NHS). Subsequently, anti-human IgG Fc antibody solution (GE Healthcare) at a concentration of 25 μg/mL in 10 mM sodium acetate (pH 5.0) was applied at a flow rate of 5 μL/min until an immobilization level of 6000-10000 resonance units (RU) was achieved. Residual non-reacted NHS-esters were blocked by passing a solution of 1M ethanolamine across the surface. The reference channel was treated in an analogous manner. […] After each capture step, the needle was washed.
(§3) Double referencing was used and the 1:1 binding model was used to fit the raw data.

[3] = target: T2, huPD-L1-His (human PD-L1 with a C-terminal polyhistidine tag) (human, UniProt Q9NZQ7 19-239); assay: SPR (Biacore), binder captured by anti-human IgG Fc, huPD-L1-His in solution, 25 C, 1:1 model
T2 construct: Bought; also called biotinylated huPD-L1-His
T2 sequence (Q9NZQ7 19-239 limits assumed): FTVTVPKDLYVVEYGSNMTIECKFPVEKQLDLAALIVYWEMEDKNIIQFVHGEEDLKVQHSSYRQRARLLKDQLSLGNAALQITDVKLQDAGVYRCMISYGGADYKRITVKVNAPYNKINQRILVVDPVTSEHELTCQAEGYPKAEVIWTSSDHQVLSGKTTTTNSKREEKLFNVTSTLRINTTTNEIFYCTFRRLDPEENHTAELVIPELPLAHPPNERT
Description: as §1, §2, §3

[4] = target: T3, human PD-L1 expressed on cells (human, UniProt Q9NZQ7 19-290); assay: flow cytometry, RKO tumor cells (PD-L1-positive)
T3 construct: whole, on cells; also called Flp-In-CHO::huPDL-1; RKO cells
T3 sequence (Q9NZQ7 19-290): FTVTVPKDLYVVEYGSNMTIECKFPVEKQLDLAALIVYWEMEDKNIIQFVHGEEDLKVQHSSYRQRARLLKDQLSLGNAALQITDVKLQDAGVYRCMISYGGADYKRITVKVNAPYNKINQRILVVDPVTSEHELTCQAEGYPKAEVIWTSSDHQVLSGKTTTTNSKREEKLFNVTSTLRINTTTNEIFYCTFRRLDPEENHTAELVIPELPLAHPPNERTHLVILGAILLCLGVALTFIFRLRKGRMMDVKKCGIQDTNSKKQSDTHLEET
Description: (§4) 5×10⁴ cells per well were incubated for 1 h in ice-cold PBS containing 5% fetal calf serum (PBS-FCS). A dilution series of the fusion proteins and control antibodies were added to the cells and incubated for 1 h on ice. Cells were washed twice with PBS and then incubated with a goat anti-hIgG Alexa647-labeled antibody for 30 min on ice. Cells were subsequently washed and analyzed using iQue Flow cytometer (Intellicyte Screener). Mean geometric fluorescent signals were plotted and fitted with Graphpad software using nonlinear regression (shared bottom, SLOPE=1).
For flow cytometric analysis, RKO cells were incubated with fusion proteins and detected using a fluorescently labeled anti-human IgG antibody as described in Example 6.

[5] = target: T2, huPD-L1-His (human PD-L1 with a …); assay: dual-binding ELISA, huPD-L1-His coated, binder titrated, detection with biotinylated huCD137-His
Description: Recombinant huPD-L1-His (R&D Systems) in PBS (1 μg/mL) was coated overnight on microtiter plates at 4° C. The plates were washed five times after each incubation step with 100 μL PBS-0.05% T. The plates were blocked with 2% BSA (w/v) in PBS-0.1% T for 1 h at room temperature and subsequently washed again. Different concentrations of tested fusion proteins were added to the wells and incubated for 1 h at room temperature, followed by a wash step. […] After washing, a 1:5000 dilution of ExtrAvidin-HRP (Sigma-Aldrich) in PBS-0.1% T-2% BSA was added to the wells and incubated for 1 h. After an additional wash step, fluorogenic HRP substrate (QuantaBlu, Thermo) was added to each well, and the fluorescence intensity was detected using a fluorescence microplate reader.

[6] = target: T2, huPD-L1-His (human PD-L1 with a …); assay: ELISA, huPD-L1-His coated, detection anti-human IgG Fc-HRP
Description: (§5) Recombinant huPD-L1-His or cyPD-L1-His (human or cynomolgus PD-L1 with a C-terminal polyhistidine tag, R&D Systems or Sino Biologics) at the concentration of 1 μg/mL in PBS was coated overnight on microtiter plates at 4° C. After washing with PBS-0.05% T (PBS supplemented with 0.05% (v/v) Tween 20), the plates were blocked with 2% BSA (w/v) in PBS-0.1% T (PBS supplemented with 0.1% (v/v) Tween 20) for 1 h at room temperature. […] Bound molecules under study were detected by incubation with 1:5000 diluted anti-human IgG Fc-HRP (Jackson Laboratory) in PBS-0.1% T-2% BSA. After an additional wash step, fluorogenic HRP substrate (QuantaBlu, Thermo) was added to each well and the fluorescence intensity was detected using a fluorescence microplate reader.

[7] = target: T4, cyPD-L1-His (cynomolgus PD-L1 with a C-terminal polyhistidine tag) (cynomolgus); assay: ELISA, cyPD-L1-His coated, detection anti-human IgG Fc-HRP
T4 construct: Bought
Description: as §5

[8] = target: T1, huCD137-His (human CD137 with a …); assay: ELISA, huCD137-His coated, detection anti-NGAL-HRP
Description: as §5
(§6) The same ELISA setup was also employed to determine the binding potency of fusion proteins to CD137, where huCD137-His (human CD137 with C-terminal polyhistidine tag, R&D Systems) or cyCD137-Fc (cynomolgus CD137 C-terminally fused to Fc) was instead coated on a microtiter plate. The testing agents were similarly titrated and bound agents were detected via anti-NGAL-HRP.

[9] = target: T5, huPD-L1-Fc (recombinant human PD-L1 Fc fusion) (human, UniProt Q9NZQ7 19-239); assay: competitive ELISA, huPD-1-His coated, 15 nM huPD-L1-Fc tracer, binder titrated
T5 construct: Bought; also called tracer huPD-L1-Fc
T5 sequence (Q9NZQ7 19-239 limits assumed): as the sequence (Q9NZQ7 19-239 limits assumed) above
Description: Recombinant huPD-1-His (Acrobiosystems) in PBS (1 μg/mL) was coated overnight on microtiter plates at 4° C. The plates were washed five times after each incubation step with 100 μL PBS-0.05% T (PBS supplemented with 0.05% (v/v) Tween 20). The plates were blocked with 2% BSA (w/v) in PBS-0.1% T (PBS supplemented with 0.1% (v/v) Tween 20) for 1 h at room temperature and subsequently washed again. […] The mixtures of fusion proteins and the tracer were added to the plates and incubated for 20 min at room temperature following by five washing steps with 100 μL PBS-0.05% T. Subsequently, a 1:5000 dilution of goat-anti human IgG-Fc HRP (Jackson) was added to the wells and incubated for 1 h. After an additional wash step, fluorogenic HRP substrate (QuantaBlu, Thermo) was added to each well, and the fluorescence intensity was detected using a fluorescence microplate reader.

[10] = target: T3, human PD-L1 expressed on cells; assay: flow cytometry, Flp-In-CHO::huPDL-1 cells
Description: (§7) The geometric means of the fluorescence intensity were used to calculate EC₅₀ values using nonlinear regression (shared bottom, SLOPE=1).
as §4

[11] = target: cyCD137-Fc (cynomolgus CD137 C-terminally fused to Fc) (cynomolgus); assay: ELISA, cyCD137-Fc coated, detection anti-NGAL-HRP
Description: as §5, §6

[12] = target: T6, human CD137 expressed on cells (human, UniProt Q07011 24-255); assay: flow cytometry, Flp-In-CHO::huCD137 cells
T6 construct: whole, on cells; also called Flp-In-CHO::huCD137; NFκB-luc2/CD137 Jurkat cells
T6 sequence (Q07011 24-255): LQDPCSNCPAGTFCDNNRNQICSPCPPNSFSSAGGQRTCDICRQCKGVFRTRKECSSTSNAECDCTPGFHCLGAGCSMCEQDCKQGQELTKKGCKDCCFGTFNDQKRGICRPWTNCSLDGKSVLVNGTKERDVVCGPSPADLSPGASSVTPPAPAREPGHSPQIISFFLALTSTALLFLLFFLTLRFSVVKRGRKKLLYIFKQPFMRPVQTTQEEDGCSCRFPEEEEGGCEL
Description: as §7, §4

[13] = target: T6, human CD137 expressed on cells; assay: cell-based or functional assay
[14] = target: T7, cynomolgus PD-L1 expressed on cells (cynomolgus); assay: flow cytometry, Flp-In-CHO::cynoPDL-1 cells
T7 construct: whole, on cells; also called Flp-In-CHO::cynoPDL-1
Description: as §7, §4

[15] = target: T8, cynomolgus CD137 expressed on cells (cynomolgus, UniProt A9YYE7 24-254); assay: flow cytometry, Flp-In-CHO::cynoCD137 cells
T8 construct: also called Flp-In-CHO::cynoCD137
T8 sequence (A9YYE7 entry or part of it limits assumed): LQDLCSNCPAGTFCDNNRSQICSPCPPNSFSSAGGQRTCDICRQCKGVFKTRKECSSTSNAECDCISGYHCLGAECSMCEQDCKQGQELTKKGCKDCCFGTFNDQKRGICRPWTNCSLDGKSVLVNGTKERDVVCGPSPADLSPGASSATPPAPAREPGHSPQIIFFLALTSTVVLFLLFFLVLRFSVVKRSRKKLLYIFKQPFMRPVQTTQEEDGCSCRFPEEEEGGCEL
Description: as §7, §4

T1 sequence (Q07011 24-186 limits assumed): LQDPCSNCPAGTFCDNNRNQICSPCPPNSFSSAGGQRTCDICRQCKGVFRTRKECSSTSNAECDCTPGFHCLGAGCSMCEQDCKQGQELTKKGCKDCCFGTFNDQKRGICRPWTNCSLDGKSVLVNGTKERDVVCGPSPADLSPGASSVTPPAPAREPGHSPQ

Row | Binder | EC50 [1] [nM] | Kd [2] [nM] | koff [2] [s⁻¹] | kon [2] [M⁻¹ s⁻¹] | Kd [3] [nM] | koff [3] [s⁻¹] | kon [3] [M⁻¹ s⁻¹] | EC50 [4] [nM] | EC50 [5] [nM] | EC50 [6] [nM] | EC50 [7] [nM] | EC50 [8] [nM] | IC50 [9] [nM] | EC50 [10] [nM] | EC50 [11] [nM] | EC50 [12] [nM] | EC50 [nM] With RKO cells (CD137 Bioassay, NFκB-luc2/CD137 Jurkat luminescence) [13] [nM] | EC50 [14] [nM] | EC50 [15] [nM]
1 | fusion protein SEQ ID NOs: 86 and 93 (bispecific antibody, human IgG4 S228P, kappa, F234A L235A, Antibody-lipocalin mutein fusion, IgG4 S228P backbone; Bivalent to CD137) heavy: not shown light: QDSTSDLIPAPPLSKVPLQQNFQDNQFHGKWYVVGQAGNIRLREDKDPIKMMATIYELKEDKSYDVTMVKFDDKKCMYDIWTFVPGSQPGEFTLGKIKSFPGHTSSLVRVVSTNYNQHAMVFFKFVFQNREEFYITLYGRTKELTSELKENFIRFSKSLGLPENHIVFPVPIDQCIDGGGGGSGGGGSGGGGSEIVLTQSPDTLSVTPKEKVTLTCRASQSIGTNIHWFQQKPGQSPKLLIKYASESISGVPSRFSGSGSGTDFTLTINSVEAEDAATYYCQQSNSWPYTFGQGTKLEIKRTVAAPSVFIFPPSDEQLKSGTASVVCLLNNFYPREAKVQWKVDNALQSGNSQESVTEQDSKDSTYSLSSTLTLSKADYEKHKVYACEVTHQGLSSPVTKSFNRGEC | 6.7 | 3.55 | 0.00013 | 36800 | 1.38 | 0.000754 | 546000 | 1.38 | 0.74 | 0.19 | 0.17 | 0.35 | 3.2 | 4.63 | 8.1 | 12.7 | 0.264 | 2.03 | 
2 | fusion protein SEQ ID NOs: 92 and 87 (bispecific antibody, human IgG4 S228P, kappa, F234A L235A, Antibody-lipocalin mutein fusion, IgG4 S228P backbone; Bivalent to CD137) heavy: not shown light: EIVLTQSPDTLSVTPKEKVTLTCRASQSIGTNIHWFQQKPGQSPKLLIKYASESISGVPSRFSGSGSGTDFTLTINSVEAEDAATYYCQQSNSWPYTFGQGTKLEIKRTVAAPSVFIFPPSDEQLKSGTASVVCLLNNFYPREAKVQWKVDNALQSGNSQESVTEQDSKDSTYSLSSTLTLSKADYEKHKVYACEVTHQGLSSPVTKSFNRGEC | 7.2 | 5.97 | 0.000208 | 34800 | 1.02 | 0.000803 | 787000 | 1 | 1.2 | 0.16 | 0.15 | 0.41 | 3.4 | 2.95 | 9.8 | 11.9 | 0.181 | 2.03 | 
3 | PD-L1 antibody SEQ ID NOs: 86 and 87 (building block of the fusion proteins) (antibody, human IgG4 S228P, kappa, F234A L235A, V domains shown) VH: QVQLQESGPGLVKPSETLSITCTVSGFSLSNYDISWIRQPPGKGLEWLGVIWTGGATNYNPALKSRLTISRDNSKNQVSLKMSSVTAADTAVYYCVRDSNYRYDEPFTYWGQGTLVTVSS VL: EIVLTQSPDTLSVTPKEKVTLTCRASQSIGTNIHWFQQKPGQSPKLLIKYASESISGVPSRFSGSGSGTDFTLTINSVEAEDAATYYCQQSNSWPYTFGQGTKLEIKR |  |  |  |  | 0.593 | 0.000649 | 1.09e+06 | 0.32 |  | 0.12 | 0.1 |  | 3.5 | 2.96 |  |  |  | 3.55 | 

The remaining lines, values ahead:

Row | EC50 [1] [nM] | Kd [2] [nM] | koff [2] [s⁻¹] | kon [2] [M⁻¹ s⁻¹] | Kd [3] [nM] | koff [3] [s⁻¹] | kon [3] [M⁻¹ s⁻¹] | EC50 [4] [nM] | EC50 [5] [nM] | EC50 [6] [nM] | EC50 [7] [nM] | EC50 [8] [nM] | IC50 [9] [nM] | EC50 [10] [nM] | EC50 [11] [nM] | EC50 [12] [nM] | EC50 [nM] With RKO cells (CD137 Bioassay, NFκB-luc2/CD137 Jurkat luminescence) [13] [nM] | EC50 [14] [nM] | EC50 [15] [nM] | Binder
4 |  | 6.24 |  |  |  |  |  |  |  |  |  |  |  |  |  | 1.31 | 0.814 |  |  | reference CD137 antibody SEQ ID NOs: 28 and 29 (antibody, human IgG4 S228P, kappa, V domains shown, also called anti-CD137 benchmark antibody) VH: QVQLQQWGAGLLKPSETLSLTCAVYGGSFSGYYWSWIRQSPEKGLEWIGEINHGGYVTYNPSLESRVTISVDTSKNQFSLKLSSVTAADTAVYYCARDYGPGNYDWYFDLWGRGTLVTVSS VL: EIVLTQSPATLSLSPGERATLSCRASQSVSSYLAWYQQKPGQAPRLLIYDASNRATGIPARFSGSGSGTDFTLTISSLEPEDFAVYYCQQRSNWPPALTFGGGTKVEIKR
5 | 2.6 | 5.5 | 0.000224 | 40700 | 0.608 | 0.000916 | 1.51e+06 | 0.69 | 0.48 | 0.18 | 0.15 | 0.16 | 2.4 | 6.99 | 0.19 | 4.15 |  | 5.89 | 6.92 | fusion protein SEQ ID NOs: 94 and 87 (bispecific antibody, human IgG4 S228P, kappa, F234A L235A, Antibody-lipocalin mutein fusion, IgG4 S228P backbone) heavy: not shown light: EIVLTQSPDTLSVTPKEKVTLTCRASQSIGTNIHWFQQKPGQSPKLLIKYASESISGVPSRFSGSGSGTDFTLTINSVEAEDAATYYCQQSNSWPYTFGQGTKLEIKRTVAAPSVFIFPPSDEQLKSGTASVVCLLNNFYPREAKVQWKVDNALQSGNSQESVTEQDSKDSTYSLSSTLTLSKADYEKHKVYACEVTHQGLSSPVTKSFNRGEC
